Results as given in publication PMC4656997.

Target: GST-CTD substrate (human)

| KmCTD from in vitro kinase assay (32P-GST-CTD product) against varying concentrations of GST-CTD substrate [µM] | KmCTD from in vitro kinase assay (32P-GST-CTD product) against varying concentrations of GST-CTD substrate, 10 μM ATP, 15 min [µM] | Substance |
| --- | --- | --- |
| 2 | – | CDK12^715–1052/CycK^11–267 complex (from UniProt Q9NYV4 715-1052; O75909 11-267) |
| – | 0.3 | full length CDK12/CycK1 complex (from UniProt Q9NYV4-1 1-1490; O75909 1-580) |
